# Target: plasminogen (species not stated)
# Assay: not given
row,Molecule,specific activity in µmol plasmin/(µmol SAK × min) (µmol plasmin/(µmol SAK × min))
1,N10ΔSAK42D (SAK42D shortened by 10 amino acids at the N-terminus),22.7
2,N14ΔSAK42D (SAK42D shortened by 14 amino acids at the N-terminus),8.1
3,"SAK42D (mature native staphylokinase of S. aureus phage 42D, expressed free of signal peptide in E. coli TG1(pMEX602sak)) (from UniProt P15240)",16.2
4,SAKM26C (artificial allelic SAK form),21.1
5,SAKM26L (artificial allelic SAK form),36.6

# Target: human plasminogen, isolated from human plasma and immobilized on Protein-Pak epoxy-activated carrier (human, UniProt P00747)
# Assay: analytical affinity chromatography on immobilized human plasminogen, 16° C.
row,Molecule,Kd [nM]
1,"SAK42D (mature native staphylokinase of S. aureus phage 42D, expressed free of signal peptide in E. coli TG1(pMEX602sak)) (other) SSSFDKGKYKKGDDASYFEPTGPYLMVNVTGVDGKRNELLSPRYVEFPIKPGTTLTKEKIEYYVEWALDATAYKEFRVVELDPSAKIEVTYYDKNKKKEETKSFPITEKGFVVPDLSEHIKNPGFNLITKVVIEKK",1480
2,N14ΔSAK42D (SAK42D shortened by 14 amino acids at the N-terminus) (other) ASYFEPTGPYLMVNVTGVDGKRNELLSPRYVEFPIKPGTTLTKEKIEYYVEWALDATAYKEFRVVELDPSAKIEVTYYDKNKKKEETKSFPITEKGFVVPDLSEHIKNPGFNLITKVVIEKK,4400
3,N10ΔSAK42D (SAK42D shortened by 10 amino acids at the N-terminus) (other) KGDDASYFEPTGPYLMVNVTGVDGKRNELLSPRYVEFPIKPGTTLTKEKIEYYVEWALDATAYKEFRVVELDPSAKIEVTYYDKNKKKEETKSFPITEKGFVVPDLSEHIKNPGFNLITKVVIEKK,2210

# Reference: US6010897, “Expression of signal-peptide-free staphylokinases” (dated 2000)
